Laboratory results: PMC12772213
Like-named read-outs stand apart in the source and are kept apart here.

Key:
[1] = target: Actin filaments (rabbit skeletal muscle actin) (rabbit) (UniProt P68135)
[2] = target: Actin filaments (rabbit skeletal muscle actin) (rabbit) (UniProt P68135); assay: three-bead optical trap; pedestal bead stage feedback; time between single actomyosin interactions at saturating (2 mM) ATP, double-exponential distribution; cHMM held through antibody to the S2Tag; 20 °C
[3] = target: Actin filaments (rabbit skeletal muscle actin) (rabbit) (UniProt P68135); assay: three-bead optical trap; isometric feedback (hindering load); detachment rate vs. force fitted to the Bell equation, interactions >10 pN excluded; cHMM held through antibody to the S2Tag; 20 °C
[4] = target: Actin filaments (rabbit skeletal muscle actin) (rabbit) (UniProt P68135); assay: three-bead optical trap; unloaded; cHMM held on pedestal beads through antibody to the S2Tag, actin filament suspended between two trapped beads; 1 µM MgATP; 20 °C; 60 mM MOPS, 25 mM KCl, 1 mM DTT, 1 mM MgCl2, 1 mM EGTA; single-molecule events by bead covariance
[5] = target: Actin filaments (rabbit skeletal muscle actin) (rabbit) (UniProt P68135); assay: three-bead optical trap; unloaded; cHMM held on pedestal beads through antibody to the S2Tag, actin filament suspended between two trapped beads; 2 mM MgATP; 20 °C; 60 mM MOPS, 25 mM KCl, 1 mM DTT, 1 mM MgCl2, 1 mM EGTA; single-molecule events by bead covariance
[6] = target: Pyrene-actin (rabbit) (UniProt P68135); assay: stopped-flow pyrene-actin fluorescence; myosin heads (apyrase-treated) mixed with equimolar pyrene-actin 10 min at RT in KMg25 buffer (60 mM MOPS pH 7, 25 mM KCl, 1 mM EGTA, 1 mM MgCl2, 1 mM DTT), then mixed with ATP; ATP-induced dissociation followed by pyrene fluorescence
[7] = target: Actin filaments (rabbit skeletal muscle actin) (rabbit) (UniProt P68135); assay: three-bead optical trap; isometric feedback (hindering load); detachment rate vs. force fitted to the Bell equation, interactions >10 pN excluded; cHMM held through antibody to the S2Tag; 20 °C; remark: listed apart in the source

Row | Actin gliding velocity (in vitro gliding assay, cHMM held through S2Tag antibody, rhodamine-phalloidin labeled actin, 32 °C) [1] | actin reattachment rate in optical trap (fast) [2] | actin reattachment rate in optical trap (slow) [2] | Bell equation k0 (detachment rate at zero force) [3] | k detach (1 μM ATP) [4] | k detach (2 mM ATP) [5] | maximum rate of ATP-induced dissociation of actomyosin [6] | Bell equation k0 (detachment rate at zero force) [7] | Substance
1 | 0.46 µm/s | 23 s⁻¹ | 1.62 s⁻¹ | 12.9 s⁻¹ | 6.26 s⁻¹ | 12.1 s⁻¹ | 340 s⁻¹ |  | Human β-cardiac myosin HMM M493I mutant (M493I-cHMM) (from UniProt P12883 1-1935; P05977 1-188; P97457 1-169) (complex)
2 | 1.6 µm/s | 17 s⁻¹ | 0.83 s⁻¹ | 32.9 s⁻¹ | 6.09 s⁻¹ | 58.5 s⁻¹ |  | 32 s⁻¹ | Human β-cardiac myosin wild type HMM (WT-cHMM) (from UniProt P12883 1-1935; P05977 1-188; P97457 1-169) (complex)
